# Assay results taken from publication PMC2171753 (The Journal of Cell Biology, 2005).
# Substitutions are numbered along the chain they refer to. Numbers in names are those of the source.
# B1: full-length EB1 F216A (natural protein, human, UniProt Q15691 1-268, looked up)
# chain: MAVNVYSTSVTSDNLSRHDMLAWINESLQLNLTKIEQLCSGAAYCQFMDMLFPGSIALKKVKFQAKLEHEYIQNFKILQAGFKRMGVDKIIPVDKLVKGKFQDNFEFVQWFKKFFDANYDGKDYDPVAARQGQETAVAPSLVAPALNKPKKPLTSSSAAPQRPISTQRTAAAPKAGPGVVRKNPGVGNGDDEAAELMQQVNVLKLTVEDLEKERDAYFGKLRNIELICQENEGENDPVLQRIVDILYATDEGFVIPDEGGPQEEQEEY
# B2: full-length EB1 F218A (natural protein, human, UniProt Q15691 1-268, looked up)
# chain: B1 chain with A216F, F218A
# B3: full-length EB1 Y217A (natural protein, human, UniProt Q15691 1-268, looked up)
# chain: B1 chain with A216F, Y217A
# B4: full-length EB1 E225A (natural protein, human, UniProt Q15691 1-268, looked up)
# chain: B1 chain with A216F, E225A
# B5: full-length EB1 K220A (natural protein, human, UniProt Q15691 1-268, looked up)
# chain: B1 chain with A216F, K220A
# B6: GST-EB1_(185-255) (domain or fragment, human, UniProt Q15691 185-255, looked up)
# chain: GVGNGDDEAAELMQQVNVLKLTVEDLEKERDFYFGKLRNIELICQENEGENDPVLQRIVDILYATDEGFVI
# Experiments:
# SEC = molecular target: the molecule itself; assay: SEC
# GST-EB1_(185-255) = molecular target: B6; assay: pull-down
# GFP-APC_(2744-2843) = GFP-APC_(2744-2843) (human, UniProt P25054 2744-2843); assay: pull-down
# GFP-APC_(2744-2843), sequence (P25054 2744-2843): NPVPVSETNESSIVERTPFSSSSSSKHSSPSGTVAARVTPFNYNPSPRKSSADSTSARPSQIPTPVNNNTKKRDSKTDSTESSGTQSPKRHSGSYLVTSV
# [1] = molecular target: APC-GFP fusion construct, APC residues 2739–2831 (human, UniProt P25054 2739-2831); assay: pull-down
# [2] = molecular target: APC-GFP fusion construct, APC residues 2760–2831 (human, UniProt P25054 2760-2831); assay: pull-down
Binder,stoichiometry N (SEC),other results
B1,2,–
B2,2,–
B3,2,–
B4,2,–
B5,2,–
"TPFNYNPSPRKSSADSTSARPSQIPTPVNNNTKKRDSKTDSTESSGTQSP (domain or fragment, human, UniProt P25054 2782-2831, looked up) [APC-GFP fusion construct, APC residues 2782–2831]",–,binding result (GST-EB1_(185-255)): binds
B6,–,binding result (GFP-APC_(2744-2843)): binds; binding result [1]: binds; binding result [2]: binds
